Tested on: Escherichia coli TOP10
Assay: shrunken log2 fold change of peptide-encoding DNA abundance (4.5 h post-induction vs induction); higher = less antimicrobial activity (less host growth inhibition)
Conditions: time post-induction: 4.5 h; library: site-saturation at positions 5, 18, 19, 20
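Note: peptides expressed intracellularly from a pBAD plasmid library in pooled LB shake-flask culture, induced with 0.3% L-arabinose, DNA abundance read by NGS, three biological replicates, DESeq2 with apeglm shrinkage.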

Point of comparison: RRIRERPPRLPRPRPRPTGDPRP, “shrunken log2 fold change” value 0.321. Against it:
- RRIRARPPRLPRPRPRPYKCPRP — lower, -0.138
- RRIRERPPRLPRPRPRPVLQPRP — lower, -0.347
- RRIRMRPPRLPRPRPRPPTLPRP — within 0.2 log units, 0.256
- RRIRVRPPRLPRPRPRPLFRPRP — lower, -0.134
- RRIRIRPPRLPRPRPRPLKHPRP — lower, -0.58
- RRIRKRPPRLPRPRPRPYWRPRP — lower, -0.426
- RRIRFRPPRLPRPRPRPREHPRP — lower, 0.0409
- RRIRYRPPRLPRPRPRPNCDPRP — lower, -0.504
- RRIRPRPPRLPRPRPRPADRPRP — within 0.2 log units, 0.408
- RRIRWRPPRLPRPRPRPQNEPRP — lower, -0.18
- RRIRHRPPRLPRPRPRPICVPRP — lower, 0.0683
- RRIRERPPRLPRPRPRPHVKPRP — lower, -0.767
- RRIRHRPPRLPRPRPRPSMEPRP — lower, -0.424
- RRIRCRPPRLPRPRPRPRVYPRP — lower, -0.217
- RRIRGRPPRLPRPRPRPVSNPRP — higher, 0.568
- RRIRFRPPRLPRPRPRPKLFPRP — lower, -0.0554
- RRIRTRPPRLPRPRPRPAWCPRP — lower, 0.0035
- RRIRQRPPRLPRPRPRPEVHPRP — lower, 0.038
- RRIRGRPPRLPRPRPRPCNQPRP — lower, -0.174
- RRIRARPPRLPRPRPRPGKSPRP — within 0.2 log units, 0.294
- RRIRWRPPRLPRPRPRPMCMPRP — lower, 0.0952
- RRIRKRPPRLPRPRPRPFLWPRP — lower, -0.119
- RRIRCRPPRLPRPRPRPDTLPRP — lower, -0.96
- RRIRPRPPRLPRPRPRPTHAPRP — within 0.2 log units, 0.131
- RRIRSRPPRLPRPRPRPFILPRP — lower, -0.695
- RRIRVRPPRLPRPRPRPCNVPRP — lower, -0.452
- RRIRHRPPRLPRPRPRPMFRPRP — lower, -0.422
- RRIRFRPPRLPRPRPRPLHLPRP — lower, -0.166
- RRIRMRPPRLPRPRPRPSAIPRP — within 0.2 log units, 0.476
- RRIRYRPPRLPRPRPRPAIWPRP — lower, 0.0587
- RRIRERPPRLPRPRPRPGWWPRP — lower, -0.0125
- RRIRKRPPRLPRPRPRPPNTPRP — within 0.2 log units, 0.408
- RRIRWRPPRLPRPRPRPVHQPRP — within 0.2 log units, 0.194
- RRIRNRPPRLPRPRPRPDEIPRP — lower, -0.043
- RRIRYRPPRLPRPRPRPSHSPRP — lower, -0.0971
- RRIRDRPPRLPRPRPRPYRTPRP — lower, -0.0206
- RRIRRRPPRLPRPRPRPHTQPRP — higher, 0.573
- RRIRNRPPRLPRPRPRPCINPRP — lower, -0.548
- RRIRNRPPRLPRPRPRPDSVPRP — lower, 0.119
- RRIRFRPPRLPRPRPRPNAIPRP — lower, -0.322
- RRIRFRPPRLPRPRPRPAIVPRP — lower, -0.0488
- RRIRPRPPRLPRPRPRPPRPPRP — higher, 0.682
- RRIRGRPPRLPRPRPRPVQSPRP — higher, 0.689
- RRIRKRPPRLPRPRPRPQTRPRP — within 0.2 log units, 0.358
- RRIRYRPPRLPRPRPRPIVRPRP — lower, -0.0319
- RRIRPRPPRLPRPRPRPMNTPRP — lower, -0.0416
- RRIRSRPPRLPRPRPRPQDAPRP — lower, 0.0464
- RRIRCRPPRLPRPRPRPIKQPRP — lower, -0.062
- RRIRQRPPRLPRPRPRPGNVPRP — lower, 0.0829
- RRIRHRPPRLPRPRPRPCLEPRP — lower, -0.0502
- RRIRERPPRLPRPRPRPQIMPRP — lower, -0.398
- RRIRSRPPRLPRPRPRPVMEPRP — lower, -0.0868
- RRIRSRPPRLPRPRPRPLFSPRP — lower, -0.0902
- RRIRERPPRLPRPRPRPTVMPRP — lower, -0.193
- RRIRYRPPRLPRPRPRPFVTPRP — lower, -0.156
- RRIRIRPPRLPRPRPRPWSEPRP — lower, -0.0763
- RRIRKRPPRLPRPRPRPPFEPRP — within 0.2 log units, 0.143
- RRIRMRPPRLPRPRPRPWAWPRP — lower, -0.0978
- RRIRIRPPRLPRPRPRPQKEPRP — lower, -0.0177
- RRIRARPPRLPRPRPRPLYAPRP — lower, 0.0495
- RRIRGRPPRLPRPRPRPPTQPRP — higher, 0.727
- RRIRDRPPRLPRPRPRPPRRPRP — higher, 0.635
- RRIRMRPPRLPRPRPRPIQTPRP — lower, -0.00151
- RRIRRRPPRLPRPRPRPLNQPRP — lower, 0.0755
- RRIRYRPPRLPRPRPRPVYCPRP — lower, -0.416
- RRIRPRPPRLPRPRPRPWGMPRP — lower, -0.128
- RRIRERPPRLPRPRPRPRKYPRP — lower, -0.201
- RRIRIRPPRLPRPRPRPSNHPRP — lower, -1.15
- RRIRDRPPRLPRPRPRPPKMPRP — within 0.2 log units, 0.166
- RRIRQRPPRLPRPRPRPHNQPRP — lower, -0.644
- RRIRTRPPRLPRPRPRPHNIPRP — lower, -0.455
- RRIRERPPRLPRPRPRPFDVPRP — lower, -0.0685
- RRIRSRPPRLPRPRPRPHCWPRP — lower, -0.0424
- RRIRDRPPRLPRPRPRPMNLPRP — lower, -0.1
- RRIRARPPRLPRPRPRPHSMPRP — lower, 0.104
- RRIRCRPPRLPRPRPRPMEAPRP — lower, -0.0255
- RRIRDRPPRLPRPRPRPNSCPRP — lower, 0.0563
- RRIRARPPRLPRPRPRPRNGPRP — higher, 0.566
- RRIRSRPPRLPRPRPRPLFRPRP — lower, -0.368
- RRIRVRPPRLPRPRPRPELNPRP — lower, -0.0839
- RRIRGRPPRLPRPRPRPTVFPRP — higher, 0.993
- RRIRDRPPRLPRPRPRPDAVPRP — higher, 0.585
- RRIRPRPPRLPRPRPRPNNCPRP — lower, -0.0794
- RRIRTRPPRLPRPRPRPQQHPRP — lower, -0.37
- RRIRTRPPRLPRPRPRPHQDPRP — lower, -0.245
- RRIRYRPPRLPRPRPRPKLRPRP — lower, -0.111
- RRIRCRPPRLPRPRPRPTKCPRP — lower, -0.0551
- RRIRLRPPRLPRPRPRPIWPPRP — within 0.2 log units, 0.356
- RRIRVRPPRLPRPRPRPMADPRP — lower, -0.0473
- RRIRCRPPRLPRPRPRPFFSPRP — lower, -0.242
- RRIRFRPPRLPRPRPRPKLPPRP — within 0.2 log units, 0.404
- RRIRGRPPRLPRPRPRPTQQPRP — higher, 0.94
- RRIRMRPPRLPRPRPRPPYDPRP — lower, 0.0745
- RRIRNRPPRLPRPRPRPKWIPRP — lower, 0.0111
- RRIRRRPPRLPRPRPRPKDVPRP — within 0.2 log units, 0.159
- RRIRIRPPRLPRPRPRPEKWPRP — lower, -0.0117
- RRIRCRPPRLPRPRPRPRKAPRP — higher, 0.578
- RRIRSRPPRLPRPRPRPPQCPRP — lower, 0.115
- RRIRSRPPRLPRPRPRPIRCPRP — lower, 0.00778
- RRIRERPPRLPRPRPRPFVRPRP — lower, -0.146
- RRIRTRPPRLPRPRPRPDACPRP — lower, -0.0191
- RRIRHRPPRLPRPRPRPLNGPRP — lower, -0.178
- RRIRSRPPRLPRPRPRPLVLPRP — lower, -0.233
- RRIRARPPRLPRPRPRPKYQPRP — lower, -0.112
- RRIRRRPPRLPRPRPRPDCVPRP — lower, -0.0143
- RRIRKRPPRLPRPRPRPGVKPRP — lower, 0.0127
- RRIRLRPPRLPRPRPRPDEMPRP — within 0.2 log units, 0.123
- RRIRCRPPRLPRPRPRPKCLPRP — lower, 0.036
- RRIRDRPPRLPRPRPRPPGGPRP — higher, 1.07
- RRIRWRPPRLPRPRPRPNLHPRP — lower, -0.269
- RRIRVRPPRLPRPRPRPKMAPRP — lower, -0.222
- RRIRARPPRLPRPRPRPGFPPRP — within 0.2 log units, 0.213
- RRIRSRPPRLPRPRPRPTHQPRP — within 0.2 log units, 0.417
- RRIRQRPPRLPRPRPRPRVSPRP — lower, -0.0909
- RRIRHRPPRLPRPRPRPHCDPRP — lower, -0.0744
- RRIRSRPPRLPRPRPRPPHYPRP — within 0.2 log units, 0.132
- RRIRMRPPRLPRPRPRPRWHPRP — within 0.2 log units, 0.378
- RRIRERPPRLPRPRPRPAAKPRP — lower, 0.0307
- RRIRRRPPRLPRPRPRPDKYPRP — lower, -0.259
- RRIRQRPPRLPRPRPRPFLFPRP — lower, -0.288
- RRIRFRPPRLPRPRPRPLIWPRP — lower, -0.13
- RRIRHRPPRLPRPRPRPDMFPRP — lower, -0.0749
- RRIRTRPPRLPRPRPRPGTDPRP — lower, -0.253
- RRIRLRPPRLPRPRPRPNGHPRP — lower, -0.0365
- RRIRLRPPRLPRPRPRPMTKPRP — lower, 0.0751
- RRIRCRPPRLPRPRPRPWPNPRP — lower, -0.279
- RRIRPRPPRLPRPRPRPTFYPRP — lower, -0.235
- RRIRTRPPRLPRPRPRPITFPRP — lower, -0.108
- RRIRGRPPRLPRPRPRPISYPRP — lower, -0.0956
- RRIRWRPPRLPRPRPRPGNTPRP — lower, -0.348
- RRIRNRPPRLPRPRPRPKAWPRP — within 0.2 log units, 0.133
- RRIRMRPPRLPRPRPRPFFSPRP — within 0.2 log units, 0.195
- RRIRWRPPRLPRPRPRPNVMPRP — lower, -0.00962
- RRIRIRPPRLPRPRPRPFVAPRP — lower, -0.158
- RRIRFRPPRLPRPRPRPGEIPRP — lower, -0.183
- RRIRVRPPRLPRPRPRPHNFPRP — lower, -0.418
- RRIRFRPPRLPRPRPRPITDPRP — lower, 0.0437
- RRIRIRPPRLPRPRPRPNSLPRP — lower, -0.457
- RRIRGRPPRLPRPRPRPPGSPRP — higher, 1.09
- RRIRVRPPRLPRPRPRPQYLPRP — lower, -0.12
- RRIRVRPPRLPRPRPRPIVDPRP — lower, -0.142
- RRIRHRPPRLPRPRPRPLMDPRP — lower, -0.974
- RRIRDRPPRLPRPRPRPEWWPRP — lower, -0.00197
- RRIRERPPRLPRPRPRPRATPRP — within 0.2 log units, 0.278
- RRIRYRPPRLPRPRPRPKTGPRP — lower, -0.243
- RRIRYRPPRLPRPRPRPNWPPRP — within 0.2 log units, 0.394
- RRIRIRPPRLPRPRPRPSRNPRP — lower, -0.124
- RRIRNRPPRLPRPRPRPPWDPRP — within 0.2 log units, 0.144
- RRIRIRPPRLPRPRPRPMESPRP — lower, -0.00136
